Experimental data: US20190169289A1 (Scripps Research, published 2019)

B1: anti-CLL1 (1075.7) Fab switch C (heavy chain C terminus) (Fab, V domains shown)
VH: DIQLQESGPGLVKPSQSLSLTCSVTGYSITSAYYWNWIRQFPGNKLEWMGYISYDGRNNYNPSLKNRISITRDTSKNQFFLKLNSVTTEDTATYYCAKEGDYDVGNYYAMDYWGQGTSVTVSS
VL: ENVLTQSPAIMSASPGEKVTMTCRASSNVISSYVHWYQQRSGASPKLWIYSTSNLASGVPARFSGSGSGTSYSLTISSVEAEDAATYYCQQYSGYPLTFGAGTKLELKR
B2: anti-CLL1 (1075.7) Fab switch D (light chain C terminus) (Fab)
light: ENVLTQSPAIMSASPGEKVTMTCRASSNVISSYVHWYQQRSGASPKLWIYSTSNLASGVPARFSGSGSGTSYSLTISSVEAEDAATYYCQQYSGYPLTFGAGTKLELKRAAAAPSVFIFPPSDEQLKSGTASVVCLLNNFYPREAKVQWKVDNALQSGNSQESVTEQDSKDSTYSLSSTLTLSKADYEKHKVYACEVTHQGLSSPVTKSFNRGECGGGGSNYHLENEVARLKKL
heavy: DIQLQESGPGLVKPSQSLSLTCSVTGYSITSAYYWNWIRQFPGNKLEWMGYISYDGRNNYNPSLKNRISITRDTSKNQFFLKLNSVTTEDTATYYCAKEGDYDVGNYYAMDYWGQGTSVTVSSARTKGPSVFPLAPSSKSTSGGTAALGCLVKDYFPEPVTVSWNSGALTSGVHTFPAVLQSSGLYSLSSVVTVPSSSLGTQTYICNVNHKPSNTKVDKKVEPKSC
B3: anti-CLL1 (1075.7) Fab bivalent switch C + D (Fab)
light: B2 light
heavy: DIQLQESGPGLVKPSQSLSLTCSVTGYSITSAYYWNWIRQFPGNKLEWMGYISYDGRNNYNPSLKNRISITRDTSKNQFFLKLNSVTTEDTATYYCAKEGDYDVGNYYAMDYWGQGTSVTVSSARTKGPSVFPLAPSSKSTSGGTAALGCLVKDYFPEPVTVSWNSGALTSGVHTFPAVLQSSGLYSLSSVVTVPSSSLGTQTYICNVNHKPSNTKVDKKVEPKSCGGGGSNYHLENEVARLKKL
B4: anti-CLL1 (1075.7) Fab switch A (LCNT1) (Fab, V domains shown)
VH: B1 VH
VL: B1 VL
B5: anti-CLL1 (1075.7) Fab switch B (HCNT3) (Fab, V domains shown)
VH: B1 VH
VL: B1 VL
B6: anti-CLL1 (1075.7) Fab bivalent switch A + B (Fab, V domains shown)
VH: B1 VH
VL: B1 VL
B7: anti-CD22 (clone hLL2) Fab LCNT switch (Fab, V domains shown)
VH: QVQLVQSGAEVKKPGSSVKVSCKASGYTFTSYWLHWVRQAPGQGLEWIGYINPRNDYTEYNQNFKDKATITADESTNTAYMELSSLRSEDTAFYFCARRDITTFYWGQGTTVTVSS
VL: DIQLTQSPSSLSASVGDRVTMSCKSSQSVLYSANHKNYLAWYQQKPGKAPKLLIYWASTRESGVPSRFSGSGSGTDFTFTISSLQPEDIATYYCHQYLSSWTFGGGTKLEIKR
B8: anti-CD19 (FMC63) Fab LCC1 switch (Fab)
light: DIQMTQTTSSLSASLGDRVTISCRASQDISKYLNWYQQKPDGTVKLLIYHTSRLHSGVPSRFSGSGSGTDYSLTISNLEQEDIATYFCQQGNTLPYTFGGGTKLEIKRTVAAPSVFIFPPSDEQLKSGTASVVCLLNNFYPREAKVQWKVDNALQSGNSQESVTEQDSGGGGSNYHLENEVARLKKLGGGGSDSTYSLSSTLTLSKADYEKHKVYACEVTHQGLSSPVTKSFNRGEC
heavy: EVKLQESGPGLVAPSQSLSVTCTVSGVSLPDYGVSWIRQPPRKGLEWLGVIWGSETTYYNSALKSRLTIIKDNSKSQVFLKMNSLQTDDTAIYYCAKHYYYGGSYAMDYWGQGTSVTVSSASTKGPSVFPLAPSSKSTSGGTAALGCLVKDYFPEPVTVSWNSGALTSGVHTFPAVLQSSGLYSLSSVVTVPSSSLGTQTYICNVNHKPSNTKVDKKVEPKSC
notes: also called anti-CD19 Fab CL1-GCN4
B9: anti-CD19 (FMC63) Fab LCCT switch (Fab)
light: DIQMTQTTSSLSASLGDRVTISCRASQDISKYLNWYQQKPDGTVKLLIYHTSRLHSGVPSRFSGSGSGTDYSLTISNLEQEDIATYFCQQGNTLPYTFGGGTKLEIKRTVAAPSVFIFPPSDEQLKSGTASVVCLLNNFYPREAKVQWKVDNALQSGNSQESVTEQDSKDSTYSLSSTLTLSKADYEKHKVYACEVTHQGLSSPVTKSFNRGECGGGGSNYHLENEVARLKKL
heavy: B8 heavy
B10: anti-CD19 (FMC63) Fab HCCT switch (Fab, V domains shown)
VH: EVKLQESGPGLVAPSQSLSVTCTVSGVSLPDYGVSWIRQPPRKGLEWLGVIWGSETTYYNSALKSRLTIIKDNSKSQVFLKMNSLQTDDTAIYYCAKHYYYGGSYAMDYWGQGTSVTVSS
VL: DIQMTQTTSSLSASLGDRVTISCRASQDISKYLNWYQQKPDGTVKLLIYHTSRLHSGVPSRFSGSGSGTDYSLTISNLEQEDIATYFCQQGNTLPYTFGGGTKLEIKR
notes: also called C-terminal switch
B11: anti-CD19 (FMC63) Fab NTBV switch (Fab, V domains shown)
VH: B10 VH
VL: B10 VL
notes: also called BV NT
B12: anti-CD19 (FMC63) Fab C1BV switch (Fab)
light: B8 light
heavy: EVKLQESGPGLVAPSQSLSVTCTVSGVSLPDYGVSWIRQPPRKGLEWLGVIWGSETTYYNSALKSRLTIIKDNSKSQVFLKMNSLQTDDTAIYYCAKHYYYGGSYAMDYWGQGTSVTVSSASTKGPSVFPLAPSSNYHLENEVARLKKLSGGTAALGCLVKDYFPEPVTVSWNSGALTSGVHTFPAVLQSSGLYSLSSVVTVPSSSLGTQTYICNVNHKPSNTKVDKKVEPKSC
notes: also called BV C1
B13: anti-CD19 (FMC63) Fab CTBV switch (Fab)
light: B9 light
heavy: EVKLQESGPGLVAPSQSLSVTCTVSGVSLPDYGVSWIRQPPRKGLEWLGVIWGSETTYYNSALKSRLTIIKDNSKSQVFLKMNSLQTDDTAIYYCAKHYYYGGSYAMDYWGQGTSVTVSSASTKGPSVFPLAPSSKSTSGGTAALGCLVKDYFPEPVTVSWNSGALTSGVHTFPAVLQSSGLYSLSSVVTVPSSSLGTQTYICNVNHKPSNTKVDKKVEPKSCGGGGSNYHLENEVARLKKL
notes: the text prints 97 & 34; also called BV CT
B14: anti-CD19 (FMC63) Fab with no grafted peptide (Fab, V domains shown)
VH: B10 VH
VL: B10 VL
notes: also called WT; wild type anti-CD19 Fab

target: T1, CLL1 (UniProt Q5QGZ9 1-265, limits assumed); experiment: cell-based or functional assay
T1 sequence (looked up): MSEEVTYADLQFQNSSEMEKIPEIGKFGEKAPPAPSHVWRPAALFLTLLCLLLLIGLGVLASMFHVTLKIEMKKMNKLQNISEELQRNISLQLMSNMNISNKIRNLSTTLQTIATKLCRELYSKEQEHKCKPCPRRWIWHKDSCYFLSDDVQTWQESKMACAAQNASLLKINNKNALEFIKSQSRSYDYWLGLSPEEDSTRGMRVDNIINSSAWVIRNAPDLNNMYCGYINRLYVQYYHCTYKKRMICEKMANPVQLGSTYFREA

| Binder | EC50 of cytotoxicity, short hinge CAR [pM] |
| --- | --- |
| B1 | 4.9 |
| B2 | 5.1 |
| B3 | 1.2 |
| B4 | 1.5 |
| B5 | 0.6 |
| B6 | 0.5 |

target: T1, CLL1; experiment: cell-based or functional assay; remark: another data set of the same source

| Binder | EC50 of cytotoxicity, long hinge CAR [pM] |
| --- | --- |
| B1 | 3.3 |
| B2 | 2.2 |
| B3 | 3.1 |
| B4 | 4.1 |
| B5 | 1.3 |
| B6 | 0.6 |

Target: T2, anti-GCN4 (52SR4 scFv) sCAR with IgG4m hinge
T2 construct: disulfide dimer by western blot; also called short-dimeric sCAR; IgG4m sCAR
T2 chain: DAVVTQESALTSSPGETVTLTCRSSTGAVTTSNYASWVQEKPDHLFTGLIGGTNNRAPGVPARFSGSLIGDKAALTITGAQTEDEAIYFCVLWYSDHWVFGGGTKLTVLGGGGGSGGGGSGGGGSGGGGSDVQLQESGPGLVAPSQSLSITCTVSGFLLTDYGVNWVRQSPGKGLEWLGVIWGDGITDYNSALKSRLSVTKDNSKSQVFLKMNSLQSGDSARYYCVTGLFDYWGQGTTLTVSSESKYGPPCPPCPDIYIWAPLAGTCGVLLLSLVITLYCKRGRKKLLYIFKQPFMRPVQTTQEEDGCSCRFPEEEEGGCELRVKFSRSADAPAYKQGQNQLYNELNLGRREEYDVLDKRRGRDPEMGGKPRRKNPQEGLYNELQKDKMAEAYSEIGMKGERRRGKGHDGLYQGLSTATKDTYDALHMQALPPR
Experiment: flow cytometry competition on CAR-T cells with the GCN4 CAR (SEQ ID NO. 74): 1 nM labelled GCN4 peptide (GCN4-AF488) as competitor, unlabelled peptide titrated, MFI of the labelled peptide read
Description: Un-labelled peptide binding efficiency was indirectly shown by measuring the mean fluorescence intensity (MFI) staining with the labelled peptide.
Cells were then washed twice with cold PBS to remove the free labelled peptide before being analyzed using the BD Accuri flow cytometer.

| Binder | binding result |
| --- | --- |
| AAALENEVARLKKL [Peptide 4: AAALENEVARLKKL] | no binding (tested: 10^3 nM) |
| AAAAENEVARLKKL [Peptide 5: AAAAENEVARLKKL] | no binding (tested: 10^3 nM) |
| NYHLENEVARLKKA [Peptide 6: NYHLENEVARLKKA] | binds |
| NYHLENEVARLKAA [Peptide 7: NYHLENEVARLKAA] | binds |
| NYHLENEVARLAAA [Peptide 8: NYHLENEVARLAAA] | binds |

target: CD22 (UniProt P20273 20-847, limits assumed); experiment: cell-based or functional assay

| Binder | EC50 of cytotoxicity [pM] |
| --- | --- |
| B7 | 6560 |

target: T3, anti-GCN4 (52SR4 scFv) sCAR with CD8 hinge; experiment: flow cytometry on CD8 sCAR-T cells, switch 30 min at 4 C, detected with PE-conjugated goat anti-human kappa chain antibody, MFI
T3 construct: 273 is the protein without leader; also called sCAR (long); CD8 sCAR
Description: Cells were washed two times and analyzed using the Accuri flow cytometer (BD).

| Binder | EC50 [pM] | binding result |
| --- | --- | --- |
| B8 | 4600 | – |
| B9 | 4600 | – |
| B10 | 11700 | – |
| B11 | 690 | – |
| B12 | 620 | – |
| B13 | 360 | – |
| B14 | – | no binding (tested: 10^2 nM) |
